Reference: patent US20250171562A1 (ALK ABELL, published 2025)

Target: T1, recombinant human IgE (human, UniProt P01854-1 1-428)
T1 construct: made in-house (ALK); preloaded on immobilised FcεRIα in the displacement ELISA
Experiment: IgE-FcεRIα displacement ELISA
Method in brief: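 sdAbs at pM–μM were incubated 1 h on preformed complexes of 13 ng/ml recombinant human IgE with avi-tag-biotinylated human FcεRIα captured on streptavidin.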

T1 sequence (P01854 other isoform, or with tags, fused parts or gaps): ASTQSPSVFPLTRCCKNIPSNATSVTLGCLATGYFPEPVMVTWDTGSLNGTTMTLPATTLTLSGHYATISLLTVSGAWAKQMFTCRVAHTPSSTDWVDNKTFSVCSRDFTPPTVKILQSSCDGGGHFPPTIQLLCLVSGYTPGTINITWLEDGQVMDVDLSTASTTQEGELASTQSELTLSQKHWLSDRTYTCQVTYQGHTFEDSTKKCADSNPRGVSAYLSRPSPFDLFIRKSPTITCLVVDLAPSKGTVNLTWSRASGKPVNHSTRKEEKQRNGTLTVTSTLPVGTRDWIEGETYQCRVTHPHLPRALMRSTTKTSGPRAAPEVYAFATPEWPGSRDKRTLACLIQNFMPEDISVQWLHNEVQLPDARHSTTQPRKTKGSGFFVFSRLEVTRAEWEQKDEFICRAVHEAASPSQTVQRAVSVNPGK

| EC50 [nM] | Max effect [%] | Binder |
| --- | --- | --- |
| 130 | 70 | CIgG4B2A1(RS) (Fc fusion) chain 1: GPPCPPCPAPEFLGGPSVFLFPPKPKDTLMISRTPEVTCVVVDVSQEDPEVQFNWYVDGVEVHNAKTKPREEQFNSTYRVVSVLTVLHQDWLNGKEYKCKVSNKGLPSSIEKTISKAKGQPREPQVYTLPPCQEEMTKNQVSLWCLVKGFYPSDIAVEWESNGQPENNYKTTPPVLDSDGSFFLYSRLTVDKSRWQEGNVFSCSVMHEALHNHYTQKSLSLSLGKRSQVQLVESGGGLVQAGGSLRLSCAVFGSTFSNNVADWYRQAPGKQRELVARISASGATREYGDSVKGRFTISRDDAKNTMYLQMNNLKPEDTAVYRCHKIEWEDLSRKDYWGQGTQVTVS chain 2: GPPCPPCPAPEFLGGPSVFLFPPKPKDTLMISRTPEVTCVVVDVSQEDPEVQFNWYVDGVEVHNAKTKPREEQFNSTYRVVSVLTVLHQDWLNGKEYKCKVSNKGLPSSIEKTISKAKGQPREPQVCTLPPSQEEMTKNQVSLSCAVKGFYPSDIAVEWESNGQPENNYKTTPPVLDSDGSFFLVSRLTVDKSRWQEGNVFSCSVMHEALHNHYTQKSLSLSLGKRSEVQLLESGGGLVQPGGSLRLSCAASGFTFGNYDMAWVRQAPGKRPEWVSSIDTGGDITHYADSVKGRFTISRDNAKNTLYLQMNSLRPEDTAVYWCATDEEYALGPNEFDYYGQGTLVTVSS |
|  | 0 | CIgG4B3A1(RS) (Fc fusion) chain 1: GPPCPPCPAPEFLGGPSVFLFPPKPKDTLMISRTPEVTCVVVDVSQEDPEVQFNWYVDGVEVHNAKTKPREEQFNSTYRVVSVLTVLHQDWLNGKEYKCKVSNKGLPSSIEKTISKAKGQPREPQVYTLPPCQEEMTKNQVSLWCLVKGFYPSDIAVEWESNGQPENNYKTTPPVLDSDGSFFLYSRLTVDKSRWQEGNVFSCSVMHEALHNHYTQKSLSLSLGKRSDVQLQESGGGLVQAGGSLRLSCAASGFIFRLAGMSWVRQAPGKGFEWVSGITMDGSTTNYADSVKGRFTISRDNSKNRLYLQMNSLKPEDTAVYYCARGAKGGYNDPRGQGTQVTVS chain 2: GPPCPPCPAPEFLGGPSVFLFPPKPKDTLMISRTPEVTCVVVDVSQEDPEVQFNWYVDGVEVHNAKTKPREEQFNSTYRVVSVLTVLHQDWLNGKEYKCKVSNKGLPSSIEKTISKAKGQPREPQVCTLPPSQEEMTKNQVSLSCAVKGFYPSDIAVEWESNGQPENNYKTTPPVLDSDGSFFLVSRLTVDKSRWQEGNVFSCSVMHEALHNHYTQKSLSLSLGKRSEVQLLESGGGLVQPGGSLRLSCAASGFTFGNYDMAWVRQAPGKRPEWVSSIDTGGDITHYADSVKGRFTISRDNAKNTLYLQMNSLRPEDTAVYWCATDEEYALGPNEFDYYGQGTLVTVSS |
| 2.1 | > 95 | CIgG4B2A1(G4S)3 (Fc fusion) chain 1: GPPCPPCPAPEFLGGPSVFLFPPKPKDTLMISRTPEVTCVVVDVSQEDPEVQFNWYVDGVEVHNAKTKPREEQFNSTYRVVSVLTVLHQDWLNGKEYKCKVSNKGLPSSIEKTISKAKGQPREPQVYTLPPCQEEMTKNQVSLWCLVKGFYPSDIAVEWESNGQPENNYKTTPPVLDSDGSFFLYSRLTVDKSRWQEGNVFSCSVMHEALHNHYTQKSLSLSLGKGGGGSGGGGSGGGGSQVQLVESGGGLVQAGGSLRLSCAVFGSTFSNNVADWYRQAPGKQRELVARISASGATREYGDSVKGRFTISRDDAKNTMYLQMNNLKPEDTAVYRCHKIEWEDLSRKDYWGQGTQVTVS chain 2: GPPCPPCPAPEFLGGPSVFLFPPKPKDTLMISRTPEVTCVVVDVSQEDPEVQFNWYVDGVEVHNAKTKPREEQFNSTYRVVSVLTVLHQDWLNGKEYKCKVSNKGLPSSIEKTISKAKGQPREPQVCTLPPSQEEMTKNQVSLSCAVKGFYPSDIAVEWESNGQPENNYKTTPPVLDSDGSFFLVSRLTVDKSRWQEGNVFSCSVMHEALHNHYTQKSLSLSLGKGGGGSGGGGSGGGGSEVQLLESGGGLVQPGGSLRLSCAASGFTFGNYDMAWVRQAPGKRPEWVSSIDTGGDITHYADSVKGRFTISRDNAKNTLYLQMNSLRPEDTAVYWCATDEEYALGPNEFDYYGQGTLVTVSS |
| 5.4 | 95 | CIgG4B3A1(G4S)3 (Fc fusion, also called CIgG4B3A1(GS)3) chain 1: GPPCPPCPAPEFLGGPSVFLFPPKPKDTLMISRTPEVTCVVVDVSQEDPEVQFNWYVDGVEVHNAKTKPREEQFNSTYRVVSVLTVLHQDWLNGKEYKCKVSNKGLPSSIEKTISKAKGQPREPQVYTLPPCQEEMTKNQVSLWCLVKGFYPSDIAVEWESNGQPENNYKTTPPVLDSDGSFFLYSRLTVDKSRWQEGNVFSCSVMHEALHNHYTQKSLSLSLGKGGGGSGGGGSGGGGSDVQLQESGGGLVQAGGSLRLSCAASGFIFRLAGMSWVRQAPGKGFEWVSGITMDGSTTNYADSVKGRFTISRDNSKNRLYLQMNSLKPEDTAVYYCARGAKGGYNDPRGQGTQVTVS chain 2: GPPCPPCPAPEFLGGPSVFLFPPKPKDTLMISRTPEVTCVVVDVSQEDPEVQFNWYVDGVEVHNAKTKPREEQFNSTYRVVSVLTVLHQDWLNGKEYKCKVSNKGLPSSIEKTISKAKGQPREPQVCTLPPSQEEMTKNQVSLSCAVKGFYPSDIAVEWESNGQPENNYKTTPPVLDSDGSFFLVSRLTVDKSRWQEGNVFSCSVMHEALHNHYTQKSLSLSLGKGGGGSGGGGSGGGGSEVQLLESGGGLVQPGGSLRLSCAASGFTFGNYDMAWVRQAPGKRPEWVSSIDTGGDITHYADSVKGRFTISRDNAKNTLYLQMNSLRPEDTAVYWCATDEEYALGPNEFDYYGQGTLVTVSS |
| 0.8 | > 95 | CIgG4B2A1(G4S)1 (Fc fusion) chain 1: GPPCPPCPAPEFLGGPSVFLFPPKPKDTLMISRTPEVTCVVVDVSQEDPEVQFNWYVDGVEVHNAKTKPREEQFNSTYRVVSVLTVLHQDWLNGKEYKCKVSNKGLPSSIEKTISKAKGQPREPQVYTLPPCQEEMTKNQVSLWCLVKGFYPSDIAVEWESNGQPENNYKTTPPVLDSDGSFFLYSRLTVDKSRWQEGNVFSCSVMHEALHNHYTQKSLSLSLGKGGGGSQVQLVESGGGLVQAGGSLRLSCAVFGSTFSNNVADWYRQAPGKQRELVARISASGATREYGDSVKGRFTISRDDAKNTMYLQMNNLKPEDTAVYRCHKIEWEDLSRKDYWGQGTQVTVS chain 2: GPPCPPCPAPEFLGGPSVFLFPPKPKDTLMISRTPEVTCVVVDVSQEDPEVQFNWYVDGVEVHNAKTKPREEQFNSTYRVVSVLTVLHQDWLNGKEYKCKVSNKGLPSSIEKTISKAKGQPREPQVCTLPPSQEEMTKNQVSLSCAVKGFYPSDIAVEWESNGQPENNYKTTPPVLDSDGSFFLVSRLTVDKSRWQEGNVFSCSVMHEALHNHYTQKSLSLSLGKGGGGSEVQLLESGGGLVQPGGSLRLSCAASGFTFGNYDMAWVRQAPGKRPEWVSSIDTGGDITHYADSVKGRFTISRDNAKNTLYLQMNSLRPEDTAVYWCATDEEYALGPNEFDYYGQGTLVTVSS |
|  | 45 | CIgG4B3A1(G4S)1 (Fc fusion, also called CIgG4B3A1(GS)1) chain 1: GPPCPPCPAPEFLGGPSVFLFPPKPKDTLMISRTPEVTCVVVDVSQEDPEVQFNWYVDGVEVHNAKTKPREEQFNSTYRVVSVLTVLHQDWLNGKEYKCKVSNKGLPSSIEKTISKAKGQPREPQVYTLPPCQEEMTKNQVSLWCLVKGFYPSDIAVEWESNGQPENNYKTTPPVLDSDGSFFLYSRLTVDKSRWQEGNVFSCSVMHEALHNHYTQKSLSLSLGKGGGGSDVQLQESGGGLVQAGGSLRLSCAASGFIFRLAGMSWVRQAPGKGFEWVSGITMDGSTTNYADSVKGRFTISRDNSKNRLYLQMNSLKPEDTAVYYCARGAKGGYNDPRGQGTQVTVS chain 2: GPPCPPCPAPEFLGGPSVFLFPPKPKDTLMISRTPEVTCVVVDVSQEDPEVQFNWYVDGVEVHNAKTKPREEQFNSTYRVVSVLTVLHQDWLNGKEYKCKVSNKGLPSSIEKTISKAKGQPREPQVCTLPPSQEEMTKNQVSLSCAVKGFYPSDIAVEWESNGQPENNYKTTPPVLDSDGSFFLVSRLTVDKSRWQEGNVFSCSVMHEALHNHYTQKSLSLSLGKGGGGSEVQLLESGGGLVQPGGSLRLSCAASGFTFGNYDMAWVRQAPGKRPEWVSSIDTGGDITHYADSVKGRFTISRDNAKNTLYLQMNSLRPEDTAVYWCATDEEYALGPNEFDYYGQGTLVTVSS |
| 0.7 | > 95 | CIgG4B2A1(G4S)2 (Fc fusion) chain 1: GPPCPPCPAPEFLGGPSVFLFPPKPKDTLMISRTPEVTCVVVDVSQEDPEVQFNWYVDGVEVHNAKTKPREEQFNSTYRVVSVLTVLHQDWLNGKEYKCKVSNKGLPSSIEKTISKAKGQPREPQVYTLPPCQEEMTKNQVSLWCLVKGFYPSDIAVEWESNGQPENNYKTTPPVLDSDGSFFLYSRLTVDKSRWQEGNVFSCSVMHEALHNHYTQKSLSLSLGKGGGGSGGGGSQVQLVESGGGLVQAGGSLRLSCAVFGSTFSNNVADWYRQAPGKQRELVARISASGATREYGDSVKGRFTISRDDAKNTMYLQMNNLKPEDTAVYRCHKIEWEDLSRKDYWGQGTQVTVS chain 2: GPPCPPCPAPEFLGGPSVFLFPPKPKDTLMISRTPEVTCVVVDVSQEDPEVQFNWYVDGVEVHNAKTKPREEQFNSTYRVVSVLTVLHQDWLNGKEYKCKVSNKGLPSSIEKTISKAKGQPREPQVCTLPPSQEEMTKNQVSLSCAVKGFYPSDIAVEWESNGQPENNYKTTPPVLDSDGSFFLVSRLTVDKSRWQEGNVFSCSVMHEALHNHYTQKSLSLSLGKGGGGSGGGGSEVQLLESGGGLVQPGGSLRLSCAASGFTFGNYDMAWVRQAPGKRPEWVSSIDTGGDITHYADSVKGRFTISRDNAKNTLYLQMNSLRPEDTAVYWCATDEEYALGPNEFDYYGQGTLVTVSS |
| 32 | 85 | CIgG4B3A1(G4S)2 (Fc fusion, also called CIgG4B3A1(GS)2) chain 1: GPPCPPCPAPEFLGGPSVFLFPPKPKDTLMISRTPEVTCVVVDVSQEDPEVQFNWYVDGVEVHNAKTKPREEQFNSTYRVVSVLTVLHQDWLNGKEYKCKVSNKGLPSSIEKTISKAKGQPREPQVYTLPPCQEEMTKNQVSLWCLVKGFYPSDIAVEWESNGQPENNYKTTPPVLDSDGSFFLYSRLTVDKSRWQEGNVFSCSVMHEALHNHYTQKSLSLSLGKGGGGSGGGGSDVQLQESGGGLVQAGGSLRLSCAASGFIFRLAGMSWVRQAPGKGFEWVSGITMDGSTTNYADSVKGRFTISRDNSKNRLYLQMNSLKPEDTAVYYCARGAKGGYNDPRGQGTQVTVS chain 2: GPPCPPCPAPEFLGGPSVFLFPPKPKDTLMISRTPEVTCVVVDVSQEDPEVQFNWYVDGVEVHNAKTKPREEQFNSTYRVVSVLTVLHQDWLNGKEYKCKVSNKGLPSSIEKTISKAKGQPREPQVCTLPPSQEEMTKNQVSLSCAVKGFYPSDIAVEWESNGQPENNYKTTPPVLDSDGSFFLVSRLTVDKSRWQEGNVFSCSVMHEALHNHYTQKSLSLSLGKGGGGSGGGGSEVQLLESGGGLVQPGGSLRLSCAASGFTFGNYDMAWVRQAPGKRPEWVSSIDTGGDITHYADSVKGRFTISRDNAKNTLYLQMNSLRPEDTAVYWCATDEEYALGPNEFDYYGQGTLVTVSS |
